B1: ProCSLA3 probe (dsDNA)
DNA 1: TCACATTTATCACGTTTGAGTTCGATACCAACTTTTTTTTTTTTTTTTTGAGC
DNA 2: GCTCAAAAAAAAAAAAAAAAAGTTGGTATCGAACTCAAACGTGATAAATGTGA
B2: ProCSLA9 probe (dsDNA)
DNA 1: TAAGAAACTTTGATAACTATTAGATGACCAAATTAATTCAATCATACCGTAAATAATTC
DNA 2: GAATTATTTACGGTATGATTGAATTAATTTGGTCATCTAATAGTTATCAAAGTTTCTTA
B3: ProCSLA12 probe (dsDNA)
DNA 1: CCCTAAAGGTTGGAGTTGGTCACTCAACCTAACCTTAAATAATGATTCATGTTGTATTC
DNA 2: GAATACAACATGAATCATTATTTAAGGTTAGGTTGAGTGACCAACTCCAACCTTTAGGG

molecular target: MBP-DoMYB75 (Dendrobium officinale, UniProt A0A2I0X1N0 1-290); experiment: EMSA; competed by unlabeled probe; LightShift Chemiluminescent EMSA Kit (Thermo Fisher) per manufacturer; buffer, salt, pH and temperature not stated; conditions: protein: recombinant; tags: MBP; label: biotin; blunt
Sequence (A0A2I0X1N0 entry or part of it): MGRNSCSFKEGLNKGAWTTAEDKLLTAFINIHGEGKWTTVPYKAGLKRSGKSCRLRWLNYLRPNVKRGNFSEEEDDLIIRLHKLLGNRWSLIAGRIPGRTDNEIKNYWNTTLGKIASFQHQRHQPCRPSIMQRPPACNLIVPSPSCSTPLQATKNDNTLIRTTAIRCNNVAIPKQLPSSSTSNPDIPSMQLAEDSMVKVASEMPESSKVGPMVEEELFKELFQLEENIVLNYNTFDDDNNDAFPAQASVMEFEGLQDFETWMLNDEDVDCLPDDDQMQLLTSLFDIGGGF

Question: Does B1 bind?
Answer: binds

Question: Does B2 bind?
Answer: binds

Question: Does B3 bind?
Answer: binds

Reference: article PMC12903456, “DoMYB75 coordinately regulates polysaccharide and anthocyanin biosynthesis in Dendrobium officinale”
